Test results as given in US20220033483A1 (GUAGNDONG FEIPENG BIOLOGICAL, published 2022).
Residue numbers refer to the chain shown, from its start.

B1: Mutation 4 (antibody, V domains shown)
VH: QVQLQQSGTELAKPGASVKFSCKASNYTFSTYWMYWIKQRPGQGLEWIGYLNPSSGHTKYNQRFKDKATLTADKSSSTAYMQLNSLTSEDSAVYYCARKYFGPFNMDYWGQGTSVTVSS
VL: EIFLTQSPAIMSASPGEKVTMTCSASTTVSYEHWYQQKSGTSPKRWLYDQSKIASGIPVRFSGSGSGTSYSLTISSMEAEDAATYYCQVWSTQPYTFGGGTKLEIKR
notes: other CDR sites as WT
B2: Mutation 1-19 (antibody, V domains shown)
VH: B1 VH with N26G, S30T, T31S, S55T, K59D, R63K, K99R, F101Y, N105G
VL: B1 VL with T27S, T28S, E32V, L47I, Q50T, I53L, V89Q, T92S
B3: Mutation 1-20 (antibody, V domains shown)
VH: B1 VH with N26G, K59D, R63K, K99R, F101W, N105G
VL: B1 VL with T27S, E32V, Q50T, V89Q, T92S
B4: Mutation 1-21 (antibody, V domains shown)
VH: B1 VH with N26G, T31S, S55T, K59D, N105G
VL: B1 VL with T28S, E32V, L47I, Q50T, V89Q, T92S
B5: Mutation 1-23 (antibody, V domains shown)
VH: B1 VH with N26G, S30T, T31S, L51I, S55T, K59D, F101W, N105G
VL: B1 VL with T27S, T28S, E32V, L47I, Q50T, I53L, V89Q, T92S, Q93N
B6: Mutation 1-26 (antibody, V domains shown)
VH: B1 VH with N26G, S30T, S55T, K59D, R63K, K99R, F101W, N105G
VL: B1 VL with T27S, E32V, Q50T, I53L, V89Q, T92S, Q93N
B7: Mutation 1-27 (antibody, V domains shown)
VH: B1 VH with N26G, S30T, T31S, K59D, R63K, N105G
VL: B1 VL with T28S, E32V, L47I, Q50T, I53L, V89Q, T92S, Q93N
B8: Mutation 1-29 (antibody, V domains shown)
VH: B1 VH with N26G, T31S, L51I, K59D, R63K, F101W, N105G
VL: B1 VL with T27S, T28S, E32V, L47I, Q50T, V89Q, T92S, Q93N
B9: Mutation 1-30 (antibody, V domains shown)
VH: B1 VH with N26G, S30T, T31S, K59D, K99R, N105G
VL: B1 VL with E32V, Q50T, I53L, V89Q, T92S, Q93N
B10: Mutation 1-31 (antibody, V domains shown)
VH: B1 VH with N26G, S30T, L51I, S55T, K59D, R63K, K99R, F101Y, N105G
VL: B1 VL with T27S, T28S, E32V, L47I, Q50T, I53L, V89Q, T92S, Q93N
B11: Mutation 1-33 (antibody, V domains shown)
VH: B1 VH with N26G, T31S, L51I, S55T, K59D, R63K, N105G
VL: B1 VL with T28S, E32V, L47I, Q50T, V89Q, T92S, Q93N
B12: Mutation 1-35 (antibody, V domains shown)
VH: B1 VH with N26G, S30T, L51I, S55T, K59D, R63K, K99R, F101W, N105G
VL: B1 VL with T27S, T28S, E32V, L47I, Q50T, I53L, V89Q
B13: Mutation 1-37 (antibody, V domains shown)
VH: B1 VH with N26G, T31S, S55T, K59D, N105G
VL: B1 VL with T28S, E32V, L47I, Q50T, I53L, V89Q
B14: Mutation 1-38 (antibody, V domains shown)
VH: B1 VH with N26G, S30T, T31S, K59D, R63K, F101Y, N105G
VL: B1 VL with T27S, E32V, Q50T, I53L, V89Q, T92S, Q93N
B15: Mutation 1-39 (antibody, V domains shown)
VH: B1 VH with N26G, S30T, S55T, K59D, R63K, F101W, N105G
VL: B1 VL with T28S, E32V, L47I, Q50T, I53L, V89Q
B16: Mutation 1-41 (antibody, V domains shown)
VH: B1 VH with N26G, T31S, L51I, S55T, K59D, K99R, F101Y, N105G
VL: B1 VL with T28S, E32V, L47I, Q50T, V89Q, T92S
B17: Mutation 1-42 (antibody, V domains shown)
VH: B1 VH with N26G, S30T, T31S, L51I, K59D, R63K, K99R, F101W, N105G
VL: B1 VL with T27S, E32V, Q50T, I53L, V89Q, T92S, Q93N
B18: Mutation 1-43 (antibody, V domains shown)
VH: B1 VH with N26G, S30T, T31S, L51I, S55T, K59D, R63K, N105G
VL: B1 VL with T28S, E32V, L47I, Q50T, I53L, V89Q
B19: Mutation 1-45 (antibody, V domains shown)
VH: B1 VH with N26G, T31S, S55T, K59D, F101W, N105G
VL: B1 VL with T27S, E32V, Q50T, I53L, V89Q, T92S
B20: Mutation 1-46 (antibody, V domains shown)
VH: B1 VH with N26G, S30T, T31S, K59D, R63K, K99R, N105G
VL: B1 VL with T28S, E32V, L47I, Q50T, I53L, V89Q, T92S, Q93N
B21: Mutation 1-48 (antibody, V domains shown)
VH: B1 VH with N26G, T31S, S55T, K59D, K99R, F101W, N105G
VL: B1 VL with T27S, E32V, L47I, Q50T, V89Q, Q93N
B22: Mutation 1-49 (antibody, V domains shown)
VH: B1 VH with N26G, S30T, K59D, R63K, N105G
VL: B1 VL with T28S, E32V, Q50T, I53L, V89Q, T92S
B23: Mutation 1-50 (antibody, V domains shown)
VH: B1 VH with N26G, S30T, T31S, S55T, K59D, R63K, K99R, F101W, N105G
VL: B1 VL with E32V, L47I, Q50T, I53L, V89Q, T92S, Q93N
B24: Mutation 1-51 (antibody, V domains shown)
VH: B1 VH with N26G, S30T, L51I, S55T, K59D, K99R, F101Y, N105G
VL: B1 VL with T28S, E32V, L47I, Q50T, V89Q, T92S
B25: Mutation 1-52 (antibody, V domains shown)
VH: B1 VH with N26G, S30T, L51I, S55T, K59D, K99R, F101W, N105G
VL: B1 VL with T28S, E32V, L47I, Q50T, V89Q, T92S, Q93N
B26: Mutation 1-56 (antibody, V domains shown)
VH: B1 VH with N26G, S30T, K59D, K99R, F101W, N105G
VL: B1 VL with T28S, E32V, L47I, Q50T, V89Q, T92S, Q93N
B27: Mutation 1-2 (antibody, V domains shown)
VH: B1 VH with N26G, S30T, T31S, L51I, K59D, K99R, F101W, N105G
VL: B1 VL with T27S, E32V, Q50T, I53L, V89Q, T92S
B28: Mutation 1-3 (antibody, V domains shown)
VH: B1 VH with N26G, S30T, L51I, S55T, K59D, R63K, N105G
VL: B1 VL with T28S, E32V, L47I, Q50T, I53L, V89Q, T92S, Q93N
B29: Mutation 1-5 (antibody, V domains shown)
VH: B1 VH with N26G, T31S, S55T, K59D, R63K, F101W, N105G
VL: B1 VL with T27S, T28S, E32V, L47I, Q50T, V89Q, Q93N
B30: Mutation 1-6 (antibody, V domains shown)
VH: B1 VH with N26G, S30T, T31S, K59D, K99R, N105G
VL: B1 VL with T27S, E32V, Q50T, I53L, V89Q, Q93N
B31: Mutation 1-7 (antibody, V domains shown)
VH: B1 VH with N26G, S30T, S55T, K59D, R63K, K99R, F101Y, N105G
VL: B1 VL with T28S, E32V, Q50T, I53L, V89Q, Q93N
B32: Mutation 1-11 (antibody, V domains shown)
VH: B1 VH with N26G, S30T, T31S, L51I, K59D, R63K, F101W, N105G
VL: B1 VL with T28S, E32V, L47I, Q50T, I53L, V89Q

target: T1, cTnI quality control product recombinant protein (human, UniProt P19429 1-210, limits assumed); assay: capture ELISA, antibody 111.111 ng/ml, cTnI 0.15 ug/ml
T1 construct: the assay paragraphs only say cTnI; also called cardiac troponin I; cTnI antigen
T1 sequence (P19429 whole entry): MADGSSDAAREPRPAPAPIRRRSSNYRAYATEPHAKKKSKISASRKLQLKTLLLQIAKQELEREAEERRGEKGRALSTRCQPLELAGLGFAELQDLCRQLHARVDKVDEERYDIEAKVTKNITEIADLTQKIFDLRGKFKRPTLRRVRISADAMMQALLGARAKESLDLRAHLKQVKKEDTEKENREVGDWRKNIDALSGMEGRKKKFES
Experimental: (§1) After mutation, the antibody activity is detected, 1 μg/ml of goat anti-mouse IgG is diluted with coating solution to coat a microwell plate, 100 μL per well, and overnight at 4 DEG C.; on the next day, it is washed twice with washing solution, and patted dry; blocking solution (20% BSA+80% PBS) is added, 120 μL per well, 37 DEG C., and 1 h, and patted dry; a diluted cTnI monoclonal antibody is added, 100 μL/well, 37 DEG C., and 60 min; liquid in the plate is shaken off, patted dry, and […] of mouse negative blood is added for blocking, 120 μl per well, 37 DEG C., 1 h; liquid in the plate is shaken off, patted dry, a diluted cTnI antigen (0.15 μg/ml) is added, 100 μL per well, 37 DEG C., and 40 min; it is washed for 5 times with the washing solution, and patted dry; another strain of the cTnI monoclonal antibody (1:5K) labeled with HRP is added, 100 μL per well, 37 DEG C., and 30 min; color developing solution A (50 μL/well) is added, color developing solution B (50 μL/well) is added, 10 min; stop solution is added, 50 μL/well; and a OD value is read at 450 nm (refer to 630 nm) on a microplate reader.

Row | Binder | OD 450 nm [OD]
1 | B1 | 0.374

target: T1, cTnI quality control product …; assay: capture ELISA, antibody 333.333 ng/ml, cTnI 0.15 ug/ml
Experimental: as §1

Row | Binder | OD 450 nm [OD]
2 | B1 | 0.678

target: T1, cTnI quality control product …; assay: AMC biosensor, antibody on sensor
Experimental: (§2) Operating process: it is equilibrated in Buffer 1 (PBST) for 60 s, the antibody is immobilized in an antibody solution for 300 s, incubated in Buffer 2 (PBST) for 180 s, bound in antigen solution for 420 s, dissociated in the Buffer 2 for 1200 s, 10 mM of GLY solution with pH 1.69 and Buffer 3 are used for sensor regeneration, and data is output.

Row | Binder | Kd [nM] | koff [s⁻¹] | kon [M⁻¹ s⁻¹]
3 | B1 | 56700 | 0.0371 | 654

target: T1, cTnI quality control product …; assay: capture ELISA, antibody 1000.000 ng/ml, cTnI 0.15 ug/ml
Experimental: as §1

Row | Binder | OD 450 nm [OD]
4 | B1 | 1.28

target: T1, cTnI quality control product …; assay: AMC biosensor, antibody on sensor; remark: another data set of the same source
Experimental: as §2

Row | Binder | Kd [nM] | koff [s⁻¹] | kon [M⁻¹ s⁻¹]
5 | B2 | 6.54 | 7.12e-05 | 10900
6 | B3 | 1.38 | 2.3e-05 | 16600
7 | B4 | 9.92 | 0.000262 | 26100
8 | B5 | 1.76 | 2.04e-05 | 11600
9 | B6 | 2.08 | 3.31e-05 | 15900
10 | B7 | 9.42 | 0.000372 | 39500
11 | B8 | 0.96 | 1.52e-05 | 15800
12 | B9 | 7.2 | 0.000258 | 35800
13 | B10 | 12.7 | 0.000365 | 24000
14 | B11 | 2.75 | 9.53e-05 | 34700
15 | B12 | 2.6 | 4.92e-05 | 18900
16 | B13 | 8.01 | 0.000268 | 33400
17 | B14 | 7.3 | 0.000223 | 30500
18 | B15 | 1.03 | 2.79e-05 | 27000
19 | B16 | 3.27 | 6.06e-05 | 18500
20 | B17 | 7.37 | 0.000362 | 49100

Row | Binder | Kd [nM] | koff [s⁻¹] | kon [M⁻¹ s⁻¹]
21 | B18 | 12.9 | 0.000368 | 28600
22 | B19 | 3.7 | 9.65e-05 | 26100
23 | B20 | 5.57 | 0.000118 | 21200
24 | B21 | 6.6 | 8.58e-05 | 13000
25 | B22 | 5.94 | 0.000195 | 32800
26 | B23 | 1.09 | 1.11e-05 | 10200
27 | B24 | 0.81 | 2.15e-05 | 26500
28 | B25 | 1.01 | 1.38e-05 | 13600
29 | B26 | 6.07 | 8.86e-05 | 14600
30 | B27 | 7.96 | 0.000302 | 37900
31 | B28 | 9.45 | 0.000181 | 19200
32 | B29 | 0.238 | 1.17e-05 | 49300
33 | B30 | 2.32 | 6.03e-05 | 26000
34 | B31 | 2.92 | 4.05e-05 | 13900
35 | B32 | 0.221 | 4.49e-06 | 20300
